For five substances, activity (% chromosomes cleaved (NHEJ)), activity and activity (% embryos with indels) results are on record in patent US20120222143.

Holding throughout (experiment): cell_activity
In data set [1] the test system is ACAN12 TALEN pair (left and right, FokI homodimer) (synthetic construct). Conditions: fibroblasts, day 3 SURVEYOR
For data set [2], the system named is DMDE6 TALEN pair (left and right) (synthetic construct). The note with it: pig fibroblasts, day 3, co-transfected with DMDE7.1.
Data set [3] deals with DMDE7.1 TALEN pair (left and right, FokI homodimer) (synthetic construct). Conditions: fibroblasts, day 3 SURVEYOR
Data set [4] deals with btGDF83.1 TALEN pair (left and right) (synthetic construct). The note with it: bovine fibroblasts, SURVEYOR; active at 30 and 37 C.
For data set [5], the system named is p65 (RELA) TALEN pair (left and right) (synthetic construct). The note with it: porcine zygotes, 10 ng/ul mRNA each TALEN, 16 of 56.

A value given as a limit tells only on which side of the number the result lay.

The substance ACAN12 target locus returned an activity (% chromosomes cleaved (NHEJ)) in data set [1] of 25.

Substance DMD exon 6 target locus displayed an activity in data set [2] of 24 % NHEJ.

In the case of DMD exon 7 target locus, the activity (% chromosomes cleaved (NHEJ)) in data set [3] came to 38.

Substance GDF8 exon 3 target locus showed an activity (% chromosomes cleaved (NHEJ)) in data set [4] of less than 16.

p65 target locus had an activity (% embryos with indels) in data set [5] of 29.
